{"source": "patent US12552837B2", "about": "“Bicyclic peptide ligands with detectable moieties and uses thereof” (BicycleRD Limited, priority 2017, dated 2026)", "tested_on": "xenograft tumor", "experiment": "μPET imaging with 68Ga-labelled Bicycle peptides in xenograft mice", "type": "in vivo", "details": "150 pmoles", "description": "General method for μPET imaging: the mice were anaesthetized (2% sevoflurane, Abbott), placed into the small animal PET scanner (Inveon PET, Siemens) and injected with 68Ga-labeled Bicycle peptides. A 20 min transmission scan, a 50 min dynamic scan and a static scan from 100 to 120 min p.i. were performed. Images were reconstructed iteratively using the space alternating generalized expectation maximization method (SAGE, 16 subsets, 4 iterations) applying median root prior correction and were converted to standardized uptake value (SUV) images. Quantitation was done using a ROI (region of interest) technique and expressed as SUVmean.\nGeneral method for radiolabeling with Ga-68: ^68Ga (half-life 68 min; β^+ 89%; Eβ+max. 1.9 MeV) was obtained from a in house ^68Ge/^68Ga generator based on pyrogallol resin support. 1 GBq ^68Ga was eluted using 5.5 M HCl. The activity was trapped on a small anion-exchanger cartridge (AG1X8, Biorad, Richmond, CA, USA) as [^68Ga]GaCl4^−. The radiogallium was eluted from the cartridge in a final volume of 300 μL ultrapure water (Merck, Darmstadt, Germany) as [^68Ga]GaCl3.\n1 nmol Bicycle peptide in 1 μL DMSO was added to a mixture of 50 μL 0.05 M HEPES, 0.1% Tween-20, and 80 μL [^68Ga]Ga^3+ eluate (˜200 MBq). The pH of the labelling solution was adjusted to 4.2 using 30% NaOH. The reaction mixture was incubated at 98° C. for 10 minutes. The radiochemical yield (RCY) was determined using reversed-phase high performance liquid chromatography (RP-HPLC; Chromolith RP-18e, 100×4.6 mm; Merck, Darmstadt, Germany). The analytical HPLC run was performed using a linear A-B gradient (0% B to 100% B in 6 min) at a flow rate of 4 mL/min. Solvent A consisted of 0.1% aqueous TFA and solvent B was 0.1% TFA in CH3CN.\nFor μPET imaging, the labelling reaction mixture was diluted in injection buffer (0.25 M Na-Acetate 0.05% Tween-20 pH 7) by a factor of 6 to obtain 150 pmoles in 100 μL injection buffer. The anaesthetized mouse (2% sevoflurane, Abbott) was injected with 100 μL of ^68Ga-labelled I-23 (˜25 MBq) and placed in a small animal PET scanner (Inveon PET, Siemens). The imaging was performed 60 min post-injection and included a 15 min transmission scan before injection and a 60 min emission scan post-injection. Scans from μPET imaging were reconstructed iteratively using the space alternating generalized expectation maximization method (SAGE, 16 subsets, 4 iterations) applying median root prior correction and were converted to standardized uptake value (SUV) images. Quantitation was accomplished using an ROI (region of interest) technique and expressed as SUVmean.\nThe radiolabelling with Ga-68 was done as described before. […] Quantitation was accomplished using an ROI (region of interest) technique and expressed as SUVmean. […]", "note": "*1 amine or outer side, *2 acyl side, *3 side chain or, on linkers, in order; H or OH if unused. Where a SMILES comes first, the peptide text is derived from it. Bridges are numbered along the chain shown (N, C = ends). [ ]: non-standard residue; d: D form. The star is where a group is joined. DOTA = O=C(O)CN1CCN(CC(=O)O)CCN(CC(=O)*)CCN(CC(=O)O)CC1; 1Nal = N[C@@H](Cc1cccc2ccccc12)C(=O)O; TBMB = c1c(C[*:1])cc(C[*:3])cc1C[*:2]; Tle = CC(C)(C)[C@H](N)C(=O)O", "data": [{"smiles": "C[C@H](NC(=O)CN1CCN(CC(=O)O)CCN(CC(=O)O)CCN(CC(=O)O)CC1)C(=O)N[C@H]1CSCc2cc3cc(c2)CSC[C@H](NC(=O)[C@@H](C)NC(=O)[C@H](Cc2cccc4ccccc24)NC(=O)[C@H](CCC(=O)O)NC(=O)[C@H](CC(N)=O)NC(=O)[C@@H](C)NC1=O)C(=O)N[C@@H](CCC(=O)O)C(=O)N[C@@H](CC(=O)O)C(=O)N[C@@H](Cc1ccccc1)C(=O)N[C@@H](Cc1ccc(O)cc1)C(=O)N[C@@H](CC(=O)O)C(=O)N[C@@H](C(C)(C)C)C(=O)N[C@H](C(N)=O)CSC3", "note": "[I-23] ({DOTA}-AC[dA]NE[1Nal][dA]CEDFYD[Tle]C-NH2; linker 2-8-15 via TBMB)", "values": [{"measurement": "time post injection from which high imaging contrasts are seen", "result": 20, "unit": "min"}, {"measurement": "tumor uptake in μPET images", "result": "MMP-14-selective tumor uptake"}]}]}
